In PMC5666081, “Solution structure of CXCL13 and heparan sulfate binding show that GAG binding site and cellular signalling rely on distinct domains” (Open Biology, 2017):

Target: T1, ΔN-CXCL13 (murine CXCL13 residues 31-109 with the initiating methionine) (murine)
T1 chain: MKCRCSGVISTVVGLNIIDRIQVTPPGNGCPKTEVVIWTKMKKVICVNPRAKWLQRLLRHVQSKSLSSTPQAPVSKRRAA
Test: NMR titration; [15N,1H] correlation spectra at different protein concentrations; monomer and dimer signals in slow exchange; KD of dimer to monomers from integrated signals of monomer and dimer; T1/T2 relaxation; 20 mM phosphate, 100 mM NaCl, pH 6, 298 K; addition of HS tetrasaccharide dp4 (50 µM on 50 µM ΔN-CXCL13) increases the dimer signals
Details: both partners purified

B1: ΔN-CXCL13 (murine CXCL13 residues 31-109 with the initiating methionine) (domain or fragment)
chain: T1 chain
modifications: initiating Met kept (piece 1); paper residue numbers are mature, offset +21 to the precursor; two disulfides expected from the chemokine fold / initiating Met kept (piece 1); paper residue numbers …
B1 was tested, and the Kd was 300 ± 100 µM and the “stoichiometry N” value was 2.
